B1: GTF3808NT: N terminal-only truncated GTF3808 from Streptococcus sp. SR4, SEQ ID NO: 108, strain SG1313 (protein)
chain: INGKQYYVNSDGSVRKNFVFEQDGKSYYFDAETGALATKSQDEFSTEPIKATVDFSSGNQLYKNDDKSLDQLDTFITADAWYRPKSILKDGKTWTASTEADKRPLLMVWWPDKSTQVNYLNYMQNQGLGAGSFSTNSSQESLDQAAKMVQTKIEERIAREGNTNWLRTSIDQFIKTQPGWNSSTENSSYDHLQGGQLLFNNSKGDTGNRTSHANSDYRLLNRTPTNQTGTRKYFKDNSIGGLEFLLANDIDNSNPAVQAEQLNWLHFMMNIGSIMANDPTANFDGLRVDALDNVDADLLQIASDYFKAAYGVDKSEANAIKHLSYLEAWSANDPYYNKDTKGAQLPIDNALRNALTNLLMRDKNTRMQLGDMTAFINSSLNPRGANDKNGERMANYIFTRAHDTEAQTIIQRIIRDRINPNLFGYNFTRDEIKKAFEIYNEDIDKAHKTYASYNLPSVYALMLTNKDSVTRVYYGDLYREDGHYMAKKTPYFDAIDTLLRARIKYVAGGQDMEVKKVGNDGLLTSVRYGKGANNRTDLGTSETRTQGMGVIMTNNYDFRLGSNETVTMNMGRAHRNQLYRPLLLTTKDGIATYLNDSDVPKNLLKRTDWNGNLTFNANDVFGVENVQVSGYLGVWVPYGAKANQDARTQPSNRANSDGQVYKSSAALDSQVMYEAFSNFQAFADDQPELYMNRVLAKNTDLLKAWGITSVGLPPQYVSSKDGTFLDSTIDNGYAFDDRYDMALSQNNKYGSLEDLLNVLRALHKDGIQAIADWVPDQIYNLPGKEVVNATRVNGYGNHQVGYQIIDQAYVANTRTDGTDYQGKYGGAFLDELKAKYPSIFNRVQISNGKQLPTNEKITKWSAKYFNGTNILGRGINYVLRDDKTNQYFNTSANSQLLPTPLRDTGAITSTQVFQRRGQDVYFLRDNQAVKNEFVQDGNGNWYYFGGDGKMTKGAQNINNKDYYFFDNGIQLRNALRRASNGYTYYYGLDGAMVKNAFVDFDDKHKQVRAFTTQGTMVVGNLHWSGHHFYFDRETGIQAKDRVVRTDDGKLHYYVAETGDMGRNVFATDSSTGKRYYFDADGNTVTGSRVIDGKTYYFNQDGSVGTAYSNRADSIIFENGKARYITPAGEIGRSIFVYNPATKAWNYFDKEGNRVTGRQYIDGHLYYFKEDGSQAKGEIIEENGIKYYYEPESGILASGRYLQVGDDQWMYFKQDGSLAIGQVRADHGYLKYFDKNGIQVKGKTVVEDGKTYYYDAHSGALVTSSFAEIAPNQWSYFNTDGQALKGKWTINGKEYYFDENGIQYKGKAIKVGSRYKYYDENDGQPVTNRFAQIEPNVWAYFGADGYAVTGEQVINGQHLYFDQSGRQVKGAYVTVNGQRRYYDANTGEYVPGR
modifications: Streptococcus sp. SR4
B2: GTF0459NTnativeT5: T5 C-terminal truncation of GTF0459, SEQ ID NO: 126, strain SG1297 (protein)
chain: INGKQYYVNSDGSVRKNFVFEQDGKSYYFDAETGALATKSQDEFSTEPIKAAVDFSSGNQLYKNDNKSLDQLDTFITADAWYRPKSILKDGKTWTASTEADKRPLLMVWWPDKSTQVNYLNYMQNQGLGAGSFSTNSSQESLNLAAKAVQTKIEERIAREGNTNWLRTSIDQFIKTQPGWNSSTENSSYDHLQGGQLLFNNSKGDTGNRTSYANSDYRLLNRTPTNQSGTRKYFKDNSIGGLEFLLANDIDNSNPAVQAEQLNWLHFMMNIGSIMANDPTANFDGLRVDALDNVDADLLQIASDYFKAVYGVDKSEANAIKHLSYLEAWSANDPYYNKDTKGAQLPIDNALRNALTNLLMRDKNTRMQLGDMTAFMNSSLNPRGANDKNGERMANYIFTRAHDTEAQTIIQRIIRDRINPNLFGYNFTRDEIKKAFEIYNADINTAHKTYASYNLPSVYALMLTNKDSVTRVYYGDLYREDGHYMAKKTPYFDAIDTLLRARIKYVAGGQDMEVKKVGNDGLLTSVRYGKGANNSTDWGTTETRTQGMGVILTNNYDFRLGSNETVTMNMGRAHRNQLYRPLLLTTKDGLATYLNDSDVPSNLLKRTDWNGNLTFNANDVFGVENVQVSGYLGVWVPVGAKANQDARTQPSNRANSDGQVYKSSAALDSQVMYEAFSNFQAFADDQPELYMNRVLAKNTDLLKAWGVTSVGLPPQYVSSKDGTFLDSTIDNGYAFDDRYDMALSQNNKYGSLEDLLNVLRALHKDGIQAIADWVPDQIYNLPGKEVVNATRVNGYGYHQQGYQIVDQAYVANTRTDGTDYQGRYGGAFLDELKAKYPSIFNRVQISNGKQLPTNEKITKWSAKYFNGTNILGRGINYVLRDDKTNQYFNTSANGQLLPTPLRDTGAITSTQVFQRRGQDVYFLRDNQVIKNEFVQDGNGNWYYFGADGKMTKGAQNINSKDYYFFDNGVQLRNALRRASNGYTYYYGLDGAMIKNAFVDFDDKHQ
modifications: T5 C-terminal truncation of GTF0459
B3: GTF0459NTnativeT6: T6 C-terminal truncation of GTF0459, SEQ ID NO: 134, strain SG1298 (protein)
chain: INGKQYYVNSDGSVRKNFVFEQDGKSYYFDAETGALATKSQDEFSTEPIKAAVDFSSGNQLYKNDNKSLDQLDTFITADAWYRPKSILKDGKTWTASTEADKRPLLMVWWPDKSTQVNYLNYMQNQGLGAGSFSTNSSQESLNLAAKAVQTKIEERIAREGNTNWLRTSIDQFIKTQPGWNSSTENSSYDHLQGGQLLFNNSKGDTGNRTSYANSDYRLLNRTPTNQSGTRKYFKDNSIGGLEFLLANDIDNSNPAVQAEQLNWLHFMMNIGSIMANDPTANFDGLRVDALDNVDADLLQIASDYFKAVYGVDKSEANAIKHLSYLEAWSANDPYYNKDTKGAQLPIDNALRNALTNLLMRDKNTRMQLGDMTAFMNSSLNPRGANDKNGERMANYIFTRAHDTEAQTIIQRIIRDRINPNLFGYNFTRDEIKKAFEIYNADINTAHKTYASYNLPSVYALMLTNKDSVTRVYYGDLYREDGHYMAKKTPYFDAIDTLLRARIKYVAGGQDMEVKKVGNDGLLTSVRYGKGANNSTDWGTTETRTQGMGVILTNNYDFRLGSNETVTMNMGRAHRNQLYRPLLLTTKDGLATYLNDSDVPSNLLKRTDWNGNLTFNANDVFGVENVQVSGYLGVWVPVGAKANQDARTQPSNRANSDGQVYKSSAALDSQVMYEAFSNFQAFADDQPELYMNRVLAKNTDLLKAWGVTSVGLPPQYVSSKDGTFLDSTIDNGYAFDDRYDMALSQNNKYGSLEDLLNVLRALHKDGIQAIADWVPDQIYNLPGKEVVNATRVNGYGYHQQGYQIVDQAYVANTRTDGTDYQGRYGGAFLDELKAKYPSIFNRVQISNGKQLPTNEKITKWSAKYFNGTNILGRGINYVLRDDKTNQYFNTSANGQLLPTPLRDTGAITSTQVFQRRGQDVYFLRDNQVIKNEFVQDGNGNWYYFGADGKMTKGAQNINSKDYYFFDNGVQLRNALRRASNGYTYYYGLDGAMIKNAFVDFDDKHQQVRAFTTQ
modifications: T6 C-terminal truncation of GTF0459
B4: GTF0459nativeNT: truncated Streptococcus sp. C150 Gtf-S glucosyltransferase, SEQ ID NO: 19, strain SG1273 (protein, listed as Streptococcus sp.)
chain: MINGKQYYVNSDGSVRKNFVFEQDGKSYYFDAETGALATKSQDEFSTEPIKAAVDFSSGNQLYKNDNKSLDQLDTFITADAWYRPKSILKDGKTWTASTEADKRPLLMVWWPDKSTQVNYLNYMQNQGLGAGSFSTNSSQESLNLAAKAVQTKIEERIAREGNTNWLRTSIDQFIKTQPGWNSSTENSSYDHLQGGQLLFNNSKGDTGNRTSYANSDYRLLNRTPTNQSGTRKYFKDNSIGGLEFLLANDIDNSNPAVQAEQLNWLHFMMNIGSIMANDPTANFDGLRVDALDNVDADLLQIASDYFKAVYGVDKSEANAIKHLSYLEAWSANDPYYNKDTKGAQLPIDNALRNALTNLLMRDKNTRMQLGDMTAFMNSSLNPRGANDKNGERMANYIFTRAHDTEAQTIIQRIIRDRINPNLFGYNFTRDEIKKAFEIYNADINTAHKTYASYNLPSVYALMLTNKDSVTRVYYGDLYREDGHYMAKKTPYFDAIDTLLRARIKYVAGGQDMEVKKVGNDGLLTSVRYGKGANNSTDWGTTETRTQGMGVILTNNYDFRLGSNETVTMNMGRAHRNQLYRPLLLTTKDGLATYLNDSDVPSNLLKRTDWNGNLTFNANDVFGVENVQVSGYLGVWVPVGAKANQDARTQPSNRANSDGQVYKSSAALDSQVMYEAFSNFQAFADDQPELYMNRVLAKNTDLLKAWGVTSVGLPPQYVSSKDGTFLDSTIDNGYAFDDRYDMALSQNNKYGSLEDLLNVLRALHKDGIQAIADWVPDQIYNLPGKEVVNATRVNGYGYHQQGYQIVDQAYVANTRTDGTDYQGRYGGAFLDELKAKYPSIFNRVQISNGKQLPTNEKITKWSAKYFNGTNILGRGINYVLRDDKTNQYFNTSANGQLLPTPLRDTGAITSTQVFQRRGQDVYFLRDNQVIKNEFVQDGNGNWYYFGADGKMTKGAQNINSKDYYFFDNGVQLRNALRRASNGYTYYYGLDGAMIKNAFVDFDDKHQQVRAFTTQGTMVVGNLHWSGHHFYFDRETGIQAKDRIVRTDDGKLHYYVAQTGDMGRNVFATDSRTGKRYYFDADGNTVTGSRVIDGKTYYFNQDGSVGTAYSNRADSIIFENGKARYITPAGEIGRSIFVYNPATKAWNYFDKEGNRVTGRQYIDGNLYYFKEDGSQVKGAIVEENGIKYYYEPGSGILASGRYLQVGDDQWIYFKHDGSLAIGQVRADGGYLKYFDKNGIQVKGQTIVEDGHTYYYDADSGALVTSSFAEIAPNQWAYFNTEGQALKGKWTINGKEYYFDQNGIQYKGKAVKVGSRYKYYDENDGQPVTNRFAQIEPNVWAYFGADGYAVTGEQVINGQHLYFDQSGRQVKGAYVTVNGQRRYYDANTGEYIPGR

Test: GTF activity of strains (PAHBAH assay)
Type: biochemical
Settings: enzyme expressed in B. subtilis host
Outline: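 Glucosyltransferase (GTF) activity of the bacterial strains was measured with the PAHBAH assay. The enzymes tested were truncated GTF variants produced in a Bacillus subtilis expression host. Measurements were split across three separate experiments, and each activity value is reported together with the experiment it came from because results varied slightly between experiments.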

| Molecule | GTF activity of strains: Acitivity (Experiment Number 3) [U/mL] | GTF activity of strains: Acitivity (Experiment Number 2) [U/mL] | GTF activity of strains: Acitivity (Experiment Number 1) [U/mL] |
| --- | --- | --- | --- |
| B1 | 34.9 | – | – |
| B2 | – | 52 | – |
| B3 | – | – | 28.5 |
| B4 | – | 39.4 | 26.5 |

Source: patent US20180049457A1, “ENZYMATIC SYNTHESIS OF SOLUBLE GLUCAN FIBER” (E I DU PONT DE NEMOURS AND COMPANY, priority 2014, published 2018)
